Experimental findings from US20230073067A1 (INSTITUTE OF MICROBIOLOGY CHINESE ACADEMY OF SCIENCE, published 2023) are described below.

The test deals with 2019-nCoV RBD protein with C-terminal hexa-His tag (2019-nCoV (SARS-CoV-2), UniProt P0DTC2 319-541). Nature of the test: SPR, Biacore 8K, antibody captured on protein A chip, RBD as analyte. Background: SPR reads the build-up and loss of mass on a sensor chip optically.

Procedure: Surface plasmon resonance analysis was performed using Biacore 8K (Biacore Inc.).
Binding kinetic constants were calculated using BIAevaluation software 8K (Biacore, inc.) software.

B1: GH12 antibody (antibody, human IgG1, lambda, V domains shown)
VH: EVQLVESGGGLVQPGGSLRLSCAASGFTFSSYWMSWVRQAPGKGLEWVANIKQDGSEKYYVDSVKGRFTISRDNAKNSLYLQMNSLRAEDTAVYYCTRAGWVRGAFDIWGQGTMVTVSS
VL: NFMLTQPHSVSESPGKTVTISCTGSSGSIASNYVQWYQQRPGSAPTTVIYEDNQRPSGVPDRFSGSIDSSSNSASLTISGLKTEDEADYYCQSYDSSNLWVFGGGTKLTVLG
notes: also called human antibody GH12
Take B1: the Kd (as a rule, the concentration at which binding is half-saturated) stood at 5.87 nM; the koff – broadly, a measure of how fast the partners let go of each other – stood at 0.0173 s⁻¹; the on-rate (kon) (as a rule, a measure of how fast the partners come together) was determined as 2.95e+06 M⁻¹ s⁻¹.
